Blank lines part the entries; values can stand above or below the binder they belong to.
Tests used:
[1] = target: T1, human SIRPA_V8 (human, UniProt P78324 31-504); assay: cell-based ELISA, transfected 293α cells, 10,000 ng/mL, normalized to FLAG
T1 construct: FLAG-tagged (pFLAG V5-DEST), on 293α cells; also called human SIRPA Variant 8
Experimental: (§1) After the culture supernatant of 293α cells into which the vector expressing 10 different variant proteins prepared in Example 2)-1-1 was introduced was removed, 50 μL per well of a purified rat anti-human SIRPA antibody diluted with 5% FBS-containing PBS to a final concentration of 10,000 ng/ml was added to each of pFLAG V5-DEST-SIRPA_V1-V10 and pFLAG V5-DEST-introduced 293α cells, and the mixture was allowed to stand at 4° C. for one hour. Further, 50 μL per well of an anti-FLAG M2 antibody (SIGMA) diluted with 5% FBS-containing PBS to a final concentration of 10,000 ng/mL was added to a well for detecting expression of each SIRPA variant, and the mixture was allowed to stand at 4° C. for one hour. Thereafter, binding to 10 different human SIRPA variants was evaluated in the same manner as in the evaluation of the binding activity of the human SIRPA described in 1)-6-2. Binding of the rat anti-human SIRPA antibodies to each variant was standardized by expression of the FLAG tag.

[2] = target: T2, human SIRPA_V4 (human, UniProt P78324 31-504); assay: as above
T2 construct: FLAG-tagged (pFLAG V5-DEST), on 293α cells; also called human SIRPA Variant 4
T2 chain: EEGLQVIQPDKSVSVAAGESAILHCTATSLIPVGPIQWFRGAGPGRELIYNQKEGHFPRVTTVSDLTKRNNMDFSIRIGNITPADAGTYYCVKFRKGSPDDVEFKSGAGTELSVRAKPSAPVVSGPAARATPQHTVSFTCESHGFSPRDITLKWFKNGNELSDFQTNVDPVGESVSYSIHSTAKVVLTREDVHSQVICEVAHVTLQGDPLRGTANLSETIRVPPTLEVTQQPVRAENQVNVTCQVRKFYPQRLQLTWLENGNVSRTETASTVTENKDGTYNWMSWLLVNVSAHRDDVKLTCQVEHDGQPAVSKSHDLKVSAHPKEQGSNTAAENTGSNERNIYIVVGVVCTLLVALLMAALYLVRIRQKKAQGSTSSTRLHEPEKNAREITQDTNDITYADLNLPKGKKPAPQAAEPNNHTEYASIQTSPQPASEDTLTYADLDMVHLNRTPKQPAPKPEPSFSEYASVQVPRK
Experimental: as §1

[3] = target: T3, mouse SIRPA_NOD (mouse (NOD), UniProt P97797 32-513); assay: cell-based ELISA, transfected 293α cells
T3 construct: FLAG-tagged (pFLAG V5-DEST), on 293α cells; also called NOD SCID
T3 chain: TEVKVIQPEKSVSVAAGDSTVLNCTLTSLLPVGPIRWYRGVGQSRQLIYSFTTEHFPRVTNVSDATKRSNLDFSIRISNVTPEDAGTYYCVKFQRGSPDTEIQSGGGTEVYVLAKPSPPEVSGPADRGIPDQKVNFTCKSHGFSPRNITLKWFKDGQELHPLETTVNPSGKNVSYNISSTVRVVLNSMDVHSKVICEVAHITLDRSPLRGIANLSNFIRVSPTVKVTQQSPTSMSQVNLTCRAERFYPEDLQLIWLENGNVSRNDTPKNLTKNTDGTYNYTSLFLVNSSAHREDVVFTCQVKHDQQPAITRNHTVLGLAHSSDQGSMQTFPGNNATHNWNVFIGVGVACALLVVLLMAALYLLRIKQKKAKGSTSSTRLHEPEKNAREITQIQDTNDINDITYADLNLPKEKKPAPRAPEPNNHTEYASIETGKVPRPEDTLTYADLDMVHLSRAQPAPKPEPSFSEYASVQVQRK
Experimental: (§2) After the culture supernatant of 293α cells into which the pFLAG V5-DEST-monkey SIRPA or pFLAG V5-DEST-mouse SIRPA expression vector was introduced and the pFLAG V5-DEST-introduced 293α cells prepared in Example 1)-5-2 was removed, binding to monkey or mouse SIRPA was evaluated in the same manner as for the binding activity of human SIRPA.

[4] = target: T4, mouse SIRPA_C57BL/6 (mouse (C57BL/6), UniProt P97797 32-513); assay: cell-based ELISA, transfected 293α cells
T4 construct: FLAG-tagged (pFLAG V5-DEST), on 293α cells
T4 sequence: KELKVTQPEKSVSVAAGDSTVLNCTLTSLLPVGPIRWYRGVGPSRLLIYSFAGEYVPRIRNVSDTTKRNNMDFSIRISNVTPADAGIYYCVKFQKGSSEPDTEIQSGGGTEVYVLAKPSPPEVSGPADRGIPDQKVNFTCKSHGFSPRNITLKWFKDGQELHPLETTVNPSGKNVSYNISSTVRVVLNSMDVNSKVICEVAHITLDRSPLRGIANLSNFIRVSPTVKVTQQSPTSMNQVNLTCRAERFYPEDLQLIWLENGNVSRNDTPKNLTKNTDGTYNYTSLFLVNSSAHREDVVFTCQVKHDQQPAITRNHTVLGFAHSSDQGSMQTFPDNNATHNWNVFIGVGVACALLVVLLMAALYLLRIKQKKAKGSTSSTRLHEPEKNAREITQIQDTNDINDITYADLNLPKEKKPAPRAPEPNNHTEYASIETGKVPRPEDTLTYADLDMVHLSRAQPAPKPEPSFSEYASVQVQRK
Experimental: as §2

[5] = target: T5, mouse SIRPA BALB/c (mouse (BALB/c), UniProt P97797 35-513); assay: cell-based ELISA, transfected 293α cells
T5 construct: FLAG-tagged (pFLAG V5-DEST), on 293α cells
T5 chain: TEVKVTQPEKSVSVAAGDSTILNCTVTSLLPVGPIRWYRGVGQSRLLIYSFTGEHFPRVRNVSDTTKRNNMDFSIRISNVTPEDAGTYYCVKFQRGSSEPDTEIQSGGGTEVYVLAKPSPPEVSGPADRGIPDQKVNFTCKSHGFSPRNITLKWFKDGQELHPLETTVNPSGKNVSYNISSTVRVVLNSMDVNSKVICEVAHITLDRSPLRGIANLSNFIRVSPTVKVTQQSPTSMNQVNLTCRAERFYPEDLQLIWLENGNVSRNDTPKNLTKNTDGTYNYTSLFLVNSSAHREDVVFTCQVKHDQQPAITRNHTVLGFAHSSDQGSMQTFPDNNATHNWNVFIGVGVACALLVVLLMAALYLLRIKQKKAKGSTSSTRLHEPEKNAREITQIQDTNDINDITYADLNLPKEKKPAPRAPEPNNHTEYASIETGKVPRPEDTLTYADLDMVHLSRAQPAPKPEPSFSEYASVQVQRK
Experimental: as §2

[6] = target: T6, mouse SIRPA_129 (mouse (129), UniProt P97797 32-513); assay: cell-based ELISA, transfected 293α cells
T6 construct: FLAG-tagged (pFLAG V5-DEST), on 293α cells; also called 129sv
T6 chain: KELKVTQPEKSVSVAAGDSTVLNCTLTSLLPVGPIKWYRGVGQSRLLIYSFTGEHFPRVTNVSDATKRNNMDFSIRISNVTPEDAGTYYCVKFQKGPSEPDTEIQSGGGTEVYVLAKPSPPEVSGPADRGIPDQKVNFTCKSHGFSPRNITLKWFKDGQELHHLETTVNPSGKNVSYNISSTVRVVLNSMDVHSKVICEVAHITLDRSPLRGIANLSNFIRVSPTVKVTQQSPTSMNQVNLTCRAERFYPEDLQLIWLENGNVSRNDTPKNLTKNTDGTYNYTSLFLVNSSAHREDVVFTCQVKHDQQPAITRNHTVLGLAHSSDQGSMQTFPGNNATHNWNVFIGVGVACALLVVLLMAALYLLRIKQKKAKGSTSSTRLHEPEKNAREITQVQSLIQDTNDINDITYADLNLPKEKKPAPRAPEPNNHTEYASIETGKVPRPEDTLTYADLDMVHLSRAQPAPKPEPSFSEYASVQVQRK
Experimental: as §2

binding result [1]: binds
binding result [2]: binds
binding result [3]: no binding
binding result [4]: no binding
binding result [5]: no binding
binding result [6]: no binding
B1: rat anti-human SIRPA monoclonal antibody F44 (antibody, V domains shown)
VH: EVQLVESGGGLVQPGRSLKLSCAASGFTFSNYYMAWVRQAPTKGLEWVTYITTGGGSTYFRDSVKGRFTISRDNAESTLYLQMDSLRSEDTATYYCTAANYGGSYFDYWGQGVMVTVSS
VL: DVQMTQSPSNLAASPGESVSINCKASKSISKYLAWYQQKPGKANKLLIYSGSTLQSGTPSRFSGSGSGTDFTLTIRNLEPEDFGLYYCQQHNEYPPTFGAGTKLELK
notes: Rat IgG2a/kappa purified from hybridoma

binding result [1]: binds
binding result [2]: binds
binding result [3]: no binding
binding result [4]: no binding
binding result [5]: no binding
binding result [6]: no binding
B2: rat anti-human SIRPA monoclonal antibody F63 (antibody, V domains shown)
VH: QVQLKESGPGLVQPSETLSLTCTVSGFSLASYSLSWVRQPSGKGPEWMGRMYYDGDTAYNSALKSRLSISRDTSKNQVFLKMNSLQTDDTGTYYCTRDRSMFGTDYPHWYFDFWGPGTMVTVSS
VL: QFTLTQPKSVSGALRSTITIPCERSSGDIGDSYVSWYQRHLGRPPINVIYADDQRPSEVSDRFSGSIDSSSNSASLTITNLQMDDEADYFCQSYDSKIDIFGGGTKLTVL
notes: Rat IgG2a/lambda purified from hybridoma
